Data published in patent publication US20200262877A1, “ION CHANNEL-BINDING PEPTIDES AND METHODS OF USE THEREOF” (priority 2017, published 2020).

What was measured:
α4β2 = target: T1, α4β2 (Homo sapiens, UniProt P17787+P43681); test: Ion channel panel (IonWorks Barracuda): α4β2; type: cell-based; conditions: 100% = no change, <100% = inhibition
T1 construct: host or cells: HEK293 or CHO
In short: (§1)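 Transfected HEK293 or CHO cells were exposed for at least 5 min to peptides at 200 nM and 20 μM final, tested in duplicate, in HEPES-buffered physiological saline. Activation was taken as peptide-plus-agonist current over control current ×100, and inhibition as 1 minus that ratio ×100. Each channel's control was its own reference compound.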

TRPV1 = target: T2, TRPV1 (Homo sapiens, UniProt Q8NER1); test: Ion channel panel (IonWorks Barracuda): TRPV1; type: cell-based; conditions: 100% = no change, <100% = inhibition
T2 construct: host or cells: HEK293 or CHO
In short: as §1

NR2A = target: T3, NR2A (Homo sapiens, UniProt Q12879); test: Ion channel panel (IonWorks Barracuda): NR2A; type: cell-based; conditions: 100% = no change, <100% = inhibition
T3 construct: host or cells: HEK293 or CHO
In short: as §1

TRPA1 = target: T4, TRPA1 (Homo sapiens, UniProt O75762); test: Ion channel panel (IonWorks Barracuda): TRPA1; type: cell-based; conditions: 100% = no change, <100% = inhibition
T4 construct: host or cells: HEK293 or CHO
In short: as §1

hERG = hERG (Homo sapiens, UniProt Q12809); test: in vitro; conditions: 100% = no change, <100% = inhibition
In short: as §1

Nav1.5 = Nav1.5 (Homo sapiens, UniProt Q14524); test: in vitro; conditions: 100% = no change; for Activity of Nav1.5 with peptide, expressed as a percentage of the reference compound: peptide at 0.2 μM; for Activity of Nav1.5 with peptide (percentage of the reference compound): peptide at 20 μM
Chain of Nav1.5 (Q14524 whole entry): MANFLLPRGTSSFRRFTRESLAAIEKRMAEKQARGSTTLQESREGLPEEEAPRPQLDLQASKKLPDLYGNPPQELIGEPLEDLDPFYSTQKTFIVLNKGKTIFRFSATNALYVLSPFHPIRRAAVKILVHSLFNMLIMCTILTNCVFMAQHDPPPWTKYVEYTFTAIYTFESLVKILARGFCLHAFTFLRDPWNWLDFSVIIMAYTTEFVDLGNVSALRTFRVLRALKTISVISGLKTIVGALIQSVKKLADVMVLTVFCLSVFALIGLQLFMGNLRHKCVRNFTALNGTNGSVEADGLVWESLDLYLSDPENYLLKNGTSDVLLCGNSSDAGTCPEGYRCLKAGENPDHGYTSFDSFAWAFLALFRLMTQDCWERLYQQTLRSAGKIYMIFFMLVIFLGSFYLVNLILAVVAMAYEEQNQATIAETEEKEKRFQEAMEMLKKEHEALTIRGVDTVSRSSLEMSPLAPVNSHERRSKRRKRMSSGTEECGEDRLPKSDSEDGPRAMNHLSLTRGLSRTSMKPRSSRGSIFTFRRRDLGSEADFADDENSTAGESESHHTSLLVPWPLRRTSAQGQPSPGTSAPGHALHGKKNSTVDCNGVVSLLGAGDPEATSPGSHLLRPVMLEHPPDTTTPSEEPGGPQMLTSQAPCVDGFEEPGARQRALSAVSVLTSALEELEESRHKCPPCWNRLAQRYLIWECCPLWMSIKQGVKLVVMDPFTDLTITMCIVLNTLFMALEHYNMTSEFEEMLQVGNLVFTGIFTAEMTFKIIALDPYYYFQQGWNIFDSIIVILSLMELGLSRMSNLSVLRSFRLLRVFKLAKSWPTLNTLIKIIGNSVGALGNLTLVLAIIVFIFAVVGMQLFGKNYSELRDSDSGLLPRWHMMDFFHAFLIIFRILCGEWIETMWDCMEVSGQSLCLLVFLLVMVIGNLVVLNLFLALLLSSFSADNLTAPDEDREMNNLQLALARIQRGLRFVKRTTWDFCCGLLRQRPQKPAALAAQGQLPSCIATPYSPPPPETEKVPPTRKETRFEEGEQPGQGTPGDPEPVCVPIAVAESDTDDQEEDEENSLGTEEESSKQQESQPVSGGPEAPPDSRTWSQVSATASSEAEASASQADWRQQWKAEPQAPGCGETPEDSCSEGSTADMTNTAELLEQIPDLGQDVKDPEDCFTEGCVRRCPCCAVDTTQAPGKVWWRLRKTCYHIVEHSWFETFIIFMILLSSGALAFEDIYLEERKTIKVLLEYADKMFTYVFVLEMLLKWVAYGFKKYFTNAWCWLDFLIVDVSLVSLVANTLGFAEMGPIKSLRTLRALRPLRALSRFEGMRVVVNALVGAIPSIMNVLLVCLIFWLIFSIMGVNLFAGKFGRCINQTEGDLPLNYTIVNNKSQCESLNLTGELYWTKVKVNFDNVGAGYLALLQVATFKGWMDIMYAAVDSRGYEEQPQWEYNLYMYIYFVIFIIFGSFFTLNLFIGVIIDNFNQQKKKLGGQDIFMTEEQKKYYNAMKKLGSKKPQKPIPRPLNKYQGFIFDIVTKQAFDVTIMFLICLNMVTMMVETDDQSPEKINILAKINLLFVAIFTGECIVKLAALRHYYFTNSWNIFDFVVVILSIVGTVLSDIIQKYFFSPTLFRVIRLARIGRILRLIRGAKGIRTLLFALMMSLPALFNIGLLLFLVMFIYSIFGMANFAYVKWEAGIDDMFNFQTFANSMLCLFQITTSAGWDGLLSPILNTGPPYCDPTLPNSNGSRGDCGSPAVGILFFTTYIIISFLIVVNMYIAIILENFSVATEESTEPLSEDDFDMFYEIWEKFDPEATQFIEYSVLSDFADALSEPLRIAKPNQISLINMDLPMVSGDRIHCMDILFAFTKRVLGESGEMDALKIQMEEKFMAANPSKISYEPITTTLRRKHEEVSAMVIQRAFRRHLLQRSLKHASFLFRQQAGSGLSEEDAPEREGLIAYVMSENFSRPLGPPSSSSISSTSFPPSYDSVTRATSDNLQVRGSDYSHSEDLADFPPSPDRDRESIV
In short: as §1

Cav2.2 = target: T5, Cav2.2 (Homo sapiens, UniProt Q00975); test: cell-based; conditions: 100% = no change, <100% = inhibition
T5 construct: host or cells: HEK293 or CHO
In short: as §1

Cav2.1 = target: T6, Cav2.1 (Homo sapiens, UniProt O00555); test: cell-based; conditions: 100% = no change, <100% = inhibition
T6 construct: host or cells: HEK293 or CHO
In short: as §1

Kv2.1 = target: T7, Kv2.1 (Homo sapiens, UniProt Q14721); test: cell-based; conditions: 100% = no change, <100% = inhibition
T7 construct: host or cells: HEK293 or CHO
In short: as §1

NR2B = target: T8, NR2B (Homo sapiens, UniProt Q13224); test: Ion channel panel (IonWorks Barracuda): NR2B; type: cell-based; conditions: 100% = no change, <100% = inhibition
T8 construct: host or cells: HEK293 or CHO
In short: as §1

5HT3a = target: T9, 5HT3a (Homo sapiens, UniProt P46098); test: Ion channel panel (IonWorks Barracuda): 5HT3a; type: cell-based
T9 construct: host or cells: HEK293 or CHO
T9 sequence (P46098 whole entry, looked up): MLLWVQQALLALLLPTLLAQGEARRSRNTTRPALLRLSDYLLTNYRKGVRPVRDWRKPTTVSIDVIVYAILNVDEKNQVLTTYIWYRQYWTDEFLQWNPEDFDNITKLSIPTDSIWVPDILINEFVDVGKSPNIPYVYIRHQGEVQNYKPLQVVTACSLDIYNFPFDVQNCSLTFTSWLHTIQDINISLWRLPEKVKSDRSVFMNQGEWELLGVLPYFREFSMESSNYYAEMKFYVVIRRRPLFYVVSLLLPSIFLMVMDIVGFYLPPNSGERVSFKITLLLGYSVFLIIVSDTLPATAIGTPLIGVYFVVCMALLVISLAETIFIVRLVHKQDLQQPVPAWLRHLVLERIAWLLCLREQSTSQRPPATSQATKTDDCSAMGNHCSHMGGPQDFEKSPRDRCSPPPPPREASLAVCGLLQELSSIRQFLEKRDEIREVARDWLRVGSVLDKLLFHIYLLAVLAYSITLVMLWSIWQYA
In short: as §1

α3β4 = target: T10, α3β4 (Homo sapiens, UniProt P30926+P32297); test: Ion channel panel (IonWorks Barracuda): α3β4; type: cell-based; conditions: 100% = no change, <100% = inhibition
T10 construct: host or cells: HEK293 or CHO
In short: as §1

Nav1.7 = target: T11, Nav1.7 (Homo sapiens, UniProt Q15858); test: cell-based; type: cell-based; conditions: 100% = no change; for Activity of Nav1.7 with peptide, expressed as a percentage of the reference compound: peptide at 0.2 μM; for Activity of Nav1.7 with peptide (percentage of the reference compound): peptide at 20 μM
T11 construct: host or cells: HEK293 or CHO
T11 sequence (Q15858 whole entry): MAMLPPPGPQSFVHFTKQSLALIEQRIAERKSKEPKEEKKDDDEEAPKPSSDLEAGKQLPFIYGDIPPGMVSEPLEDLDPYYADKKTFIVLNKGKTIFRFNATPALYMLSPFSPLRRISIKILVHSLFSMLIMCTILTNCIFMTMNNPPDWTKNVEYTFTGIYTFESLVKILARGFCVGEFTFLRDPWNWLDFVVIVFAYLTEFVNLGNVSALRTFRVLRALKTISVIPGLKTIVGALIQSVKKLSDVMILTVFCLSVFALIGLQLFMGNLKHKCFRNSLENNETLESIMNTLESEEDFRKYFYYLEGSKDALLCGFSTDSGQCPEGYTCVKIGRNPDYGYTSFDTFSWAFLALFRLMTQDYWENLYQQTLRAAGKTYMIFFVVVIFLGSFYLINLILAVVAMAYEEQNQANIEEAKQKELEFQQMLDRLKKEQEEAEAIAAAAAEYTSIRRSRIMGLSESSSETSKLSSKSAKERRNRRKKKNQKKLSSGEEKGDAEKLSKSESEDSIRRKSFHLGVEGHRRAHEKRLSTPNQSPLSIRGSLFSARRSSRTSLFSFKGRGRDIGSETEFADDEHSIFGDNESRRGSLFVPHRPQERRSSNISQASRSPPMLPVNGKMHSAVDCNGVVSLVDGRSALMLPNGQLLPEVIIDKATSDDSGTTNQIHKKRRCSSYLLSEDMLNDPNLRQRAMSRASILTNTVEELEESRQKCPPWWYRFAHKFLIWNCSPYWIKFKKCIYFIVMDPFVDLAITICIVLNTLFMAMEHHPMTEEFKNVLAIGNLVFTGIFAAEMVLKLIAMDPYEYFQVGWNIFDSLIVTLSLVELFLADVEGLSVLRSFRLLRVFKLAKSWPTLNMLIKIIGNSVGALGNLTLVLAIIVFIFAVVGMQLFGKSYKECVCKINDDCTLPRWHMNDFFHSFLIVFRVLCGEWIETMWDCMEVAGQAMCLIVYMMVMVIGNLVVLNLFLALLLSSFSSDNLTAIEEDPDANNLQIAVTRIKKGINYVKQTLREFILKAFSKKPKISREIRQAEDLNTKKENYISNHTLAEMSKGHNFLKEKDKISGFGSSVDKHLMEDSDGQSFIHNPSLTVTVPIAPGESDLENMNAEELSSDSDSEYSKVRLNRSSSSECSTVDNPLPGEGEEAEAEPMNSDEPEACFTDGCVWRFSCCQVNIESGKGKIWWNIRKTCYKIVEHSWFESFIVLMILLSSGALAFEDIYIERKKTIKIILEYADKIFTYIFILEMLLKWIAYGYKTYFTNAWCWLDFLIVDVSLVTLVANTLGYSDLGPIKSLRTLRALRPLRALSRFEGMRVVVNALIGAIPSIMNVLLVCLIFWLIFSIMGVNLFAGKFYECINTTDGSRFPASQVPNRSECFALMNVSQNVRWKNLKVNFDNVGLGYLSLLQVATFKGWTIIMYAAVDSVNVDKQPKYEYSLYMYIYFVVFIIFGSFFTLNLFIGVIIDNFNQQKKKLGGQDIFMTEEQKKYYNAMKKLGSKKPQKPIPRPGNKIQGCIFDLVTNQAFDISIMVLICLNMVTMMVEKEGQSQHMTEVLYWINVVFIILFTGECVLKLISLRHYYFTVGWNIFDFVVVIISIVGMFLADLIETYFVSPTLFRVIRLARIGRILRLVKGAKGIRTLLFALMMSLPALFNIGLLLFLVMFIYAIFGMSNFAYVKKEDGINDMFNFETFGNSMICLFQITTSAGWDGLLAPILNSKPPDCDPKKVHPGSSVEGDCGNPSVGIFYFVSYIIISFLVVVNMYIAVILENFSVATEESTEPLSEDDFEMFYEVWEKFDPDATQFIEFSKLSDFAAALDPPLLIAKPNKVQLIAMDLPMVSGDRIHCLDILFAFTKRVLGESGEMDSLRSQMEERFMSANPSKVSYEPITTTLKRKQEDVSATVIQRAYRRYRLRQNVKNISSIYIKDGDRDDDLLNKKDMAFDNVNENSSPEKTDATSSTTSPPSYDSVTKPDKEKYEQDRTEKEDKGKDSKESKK

Kir2.1 = target: T12, Kir2.1 (Homo sapiens, UniProt P63252); test: Ion channel panel (IonWorks Barracuda): Kir2.1; type: cell-based; conditions: 100% = no change, <100% = inhibition
T12 construct: host or cells: HEK293 or CHO
In short: as §1

GABA = test: Ion channel panel (IonWorks Barracuda): GABA; type: cell-based; conditions: 100% = no change, <100% = inhibition
In short: as §1

Kv1.3 = target: T13, Kv1.3 (Homo sapiens, UniProt P22001); test: cell-based; type: cell-based; conditions: 100% = no change, <100% = inhibition
T13 construct: host or cells: HEK293 or CHO
In short: as §1

Kv1.1 = target: T14, Kv1.1 (Homo sapiens, UniProt Q09470); test: cell-based; type: cell-based; conditions: 100% = no change, <100% = inhibition
T14 construct: host or cells: HEK293 or CHO
In short: as §1

Kv1.2 = target: T15, Kv1.2 (Homo sapiens, UniProt P16389); test: cell-based; type: cell-based; conditions: 100% = no change, <100% = inhibition
T15 construct: host or cells: HEK293 or CHO
In short: as §1

[1] = first of two Nav1.5 columns (probably TP1)
[2] = second of two Nav1.5 columns (probably TP2)
[3] = first of two Nav1.7 columns (probably TP1)
[4] = second of two Nav1.7 columns (probably TP2)

T1 sequence (P43681 29-627): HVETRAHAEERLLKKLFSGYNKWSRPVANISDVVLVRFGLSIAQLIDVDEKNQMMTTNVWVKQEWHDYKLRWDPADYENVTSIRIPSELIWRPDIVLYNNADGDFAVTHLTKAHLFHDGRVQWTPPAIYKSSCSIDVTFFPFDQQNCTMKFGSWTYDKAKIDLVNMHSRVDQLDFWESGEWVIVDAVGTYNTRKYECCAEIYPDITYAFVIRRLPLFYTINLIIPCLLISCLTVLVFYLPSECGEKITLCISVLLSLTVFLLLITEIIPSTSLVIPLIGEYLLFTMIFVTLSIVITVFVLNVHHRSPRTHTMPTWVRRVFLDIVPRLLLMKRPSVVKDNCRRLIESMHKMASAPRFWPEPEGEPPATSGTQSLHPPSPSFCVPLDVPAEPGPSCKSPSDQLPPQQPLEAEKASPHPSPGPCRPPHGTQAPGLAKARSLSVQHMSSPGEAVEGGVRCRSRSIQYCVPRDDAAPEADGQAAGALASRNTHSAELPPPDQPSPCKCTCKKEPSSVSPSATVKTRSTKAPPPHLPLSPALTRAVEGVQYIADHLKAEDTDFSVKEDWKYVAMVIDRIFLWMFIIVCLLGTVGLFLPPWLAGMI
T1 sequence (P17787 26-502): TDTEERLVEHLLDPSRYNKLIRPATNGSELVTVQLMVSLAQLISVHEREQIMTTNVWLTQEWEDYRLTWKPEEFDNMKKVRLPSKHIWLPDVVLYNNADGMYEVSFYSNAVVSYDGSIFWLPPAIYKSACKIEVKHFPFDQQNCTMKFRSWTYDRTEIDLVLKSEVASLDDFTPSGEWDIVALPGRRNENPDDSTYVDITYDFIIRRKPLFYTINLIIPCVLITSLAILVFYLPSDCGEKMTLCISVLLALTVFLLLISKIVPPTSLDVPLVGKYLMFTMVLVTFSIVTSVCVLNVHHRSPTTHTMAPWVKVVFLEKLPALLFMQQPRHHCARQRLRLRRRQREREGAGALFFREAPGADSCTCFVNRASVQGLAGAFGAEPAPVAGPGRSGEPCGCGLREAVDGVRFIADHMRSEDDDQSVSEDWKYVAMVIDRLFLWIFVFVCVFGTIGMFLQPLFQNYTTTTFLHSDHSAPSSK

14 (GSDRDSCIDKSRCSKYGYYQECQDCCKKAGHNGGTCMFFKCKCA) [compound 14]
Activity of a4b2 with peptide, expressed as a percentage of the reference compound (α4β2; peptide at 0.2 μM): 106%
Activity of a4b2 with peptide (percentage of the reference compound) (α4β2; peptide at 20 μM): 81%
Activity of TRPV1 with peptide, expressed as a percentage of the reference compound (TRPV1; peptide at 0.2 μM): 133%
Activity of TRPV1 with peptide (percentage of the reference compound) (TRPV1; peptide at 20 μM): 92%
Activity of NR2A with peptide, expressed as a percentage of the reference compound (NR2A; peptide at 0.2 μM): 107%
Activity of NR2A with peptide (percentage of the reference compound) (NR2A; peptide at 20 μM): 95%
Activity of TRPA1 with peptide, expressed as a percentage of the reference compound (TRPA1; peptide at 0.2 μM): 106%
Activity of TRPA1 with peptide (percentage of the reference compound) (TRPA1; peptide at 20 μM): 66%
Activity of hERG with peptide, expressed as a percentage of the reference compound (hERG; peptide at 0.2 μM): 82%
Activity of hERG with peptide (percentage of the reference compound) (hERG; peptide at 20 μM): 1%
Activity of Nav1.5 with peptide, expressed as a percentage of the reference compound (Nav1.5; [1]): 85%
Activity of Nav1.5 with peptide, expressed as a percentage of the reference compound (Nav1.5; [2]): 82%
Activity of Nav1.5 with peptide (percentage of the reference compound) (Nav1.5; [1]): 94%
Activity of Nav1.5 with peptide (percentage of the reference compound) (Nav1.5; [2]): 97%
Activity of Cav2.2 with peptide, expressed as a percentage of the reference compound (Cav2.2; peptide at 0.2 μM): 129%
Activity of Cav2.2 with peptide (percentage of the reference compound) (Cav2.2; peptide at 20 μM): 95%
Activity of Cav2.1 with peptide, expressed as a percentage of the reference compound (Cav2.1; peptide at 0.2 μM): 118%
Activity of Cav2.1 with peptide (percentage of the reference compound) (Cav2.1; peptide at 20 μM): 111%
Activity of Kv2.1 with peptide, expressed as a percentage of the reference compound (Kv2.1; peptide at 0.2 μM): 109%
Activity of Kv2.1 with peptide (percentage of the reference compound) (Kv2.1; peptide at 20 μM): 93%
Activity of NR2B with peptide, expressed as a percentage of the reference compound (NR2B; peptide at 0.2 μM): 123%
Activity of NR2B with peptide (percentage of the reference compound) (NR2B; peptide at 20 μM): 72%
Activity of 5HT3a with peptide (percentage of the reference compound) (5HT3a): 78%
Activity of 5HT3a with peptide, expressed as a percentage of the reference compound (5HT3a): 96%
Activity of a3b4 with peptide, expressed as a percentage of the reference compound (α3β4; peptide at 0.2 μM): 99%
Activity of a3b4 with peptide (percentage of the reference compound) (α3β4; peptide at 20 μM): 93%
Activity of Nav1.7 with peptide, expressed as a percentage of the reference compound (Nav1.7; [3]): 83%
Activity of Nav1.7 with peptide, expressed as a percentage of the reference compound (Nav1.7; [4]): 89%
Activity of Nav1.7 with peptide (percentage of the reference compound) (Nav1.7; [3]): 72%
Activity of Nav1.7 with peptide (percentage of the reference compound) (Nav1.7; [4]): 65%
Activity of Kir2.1 with peptide, expressed as a percentage of the reference compound (Kir2.1; peptide at 0.2 μM): 95%
Activity of Kir2.1 with peptide (percentage of the reference compound) (Kir2.1; peptide at 20 μM): 79%
Activity of GABA with peptide, expressed as a percentage of the reference compound (GABA; peptide at 0.2 μM): 107%
Activity of GABA with peptide (percentage of the reference compound) (GABA; peptide at 20 μM): 120%
Activity of Kv1.3 with peptide, expressed as a percentage of the reference compound (Kv1.3; peptide at 0.2 μM): 87%
Activity of Kv1.3 with peptide (percentage of the reference compound) (Kv1.3; peptide at 20 μM): 82%
Activity of Kv1.1 with peptide, expressed as a percentage of the reference compound (Kv1.1; peptide at 0.2 μM): 79%
Activity of Kv1.1 with peptide (percentage of the reference compound) (Kv1.1; peptide at 20 μM): 99%
Activity of Kv1.2 with peptide, expressed as a percentage of the reference compound (Kv1.2; peptide at 0.2 μM): 73%
Activity of Kv1.2 with peptide (percentage of the reference compound) (Kv1.2; peptide at 20 μM): 34%
